The text below walks through data of patent publication US8470576B2, “Group of novel enantioselective microbial nitrile hydratases with broad substrate specificity” (B.R.A.I.N. AG, priority 2006, dated 2013).

What all share (type): biochemical
The subject of data set [1] is NHase from Raoultella terrigena, 77.1. Nature of the data set: Substrate spectrum, relative activity of the NHase from strain 77.1. The note with it: cell free crude cell extracts; 2-phenylpropionitrile set to 100%. The method, then: (§1) If not otherwise indicated enzyme samples were prepared as follows: the cells from 1 ml of the culture were washed with 50 mM Tris/HCl pH 7.5 and resuspended in 750 μl of the same buffer. This suspension was incubated at 30° C. in a thermomixer at 1000 rpm. The biotransformation was started by addition of the substrate 2-phenylpropionitrile (PPN) in 50 mM Tris/HCl pH 7.5. The concentration of the substrate was 1 mM, if not otherwise stated. The reaction was stopped after 1 min, 5 min or 10 min as indicated by addition of 1 M HCl. Cells were removed by centrifugation and the supernatant analysed by HPLC for the presence of the corresponding amide. The HPLC analysis was carried out on a system comprising a Surveyor 4 channel Pump, AutoSampler and UVNIS detector at 210 nm from Thermo Finnigan on a Grom-Sil 1200DS-3 cp 3 μm (125×4.6 mm) reverse phase column. As mobile phase, acetonitrile and 0.3% H3PO4 were used in a ratio of 50:50 at a flow of 0.7 ml/min, respectively.
(§2) For the enzyme according Seq ID No. 2 and 4 (Raoultella terrigena, 77.1) and Seq ID. No. 18 and 20 (Klebsiella oxytoca, 38.1.2) the substrate spectrum was determined. The activities were compared to the activity towards 2-phenylpropionitrile which was set to 100%. Both enzymes are capable of the conversion of aliphatic as well as aromatic substrates.

Data set [2] relates to NHase from Klebsiella oxytoca, 38.1.2. Nature of the data set: Substrate spectrum, relative activity of the NHase from strain 38.1.2. The note with it: lyophilized cells; 2-phenylpropionitrile set to 100%. The method, then: as §1, §2
Data set [3] can be described thus: Enantioselectivity of NHases towards rac-mandelonitrile (washed cells, chiral HPLC). Conditions: for enantiopreference: (R/S)-mandelonitrile; for Eapp-value: kinetic resolution of (R/S)-mandelonitrile; for Eapp-value heterologously expressed / Eapp-value homologously expressed: rac-mandelonitrile; for Eapp-value heterologously expressed: heterologously expressed NHase; for Eapp-value homologously expressed: homologously expressed NHase. As for the experimental part: For the determination of enantioselectivity towards rac-mandelonitrile and 2-phenylpropionitrile 40-50 mg of washed cells were resuspended in 1 ml of 50 mM Tris/HCl pH 7.5. 100 μl of cell suspension were mixed with 800 μl 50 mM Tris/HCl pH 7.5 and incubated at 30° C. in a thermomixer at 1000 rpm. The biotransformation was started by addition of 100 μl of 10 mM rac-mandelonitrile or rac-2-phenylpropionitrile in 50 mM Tris/HCl pH 7.5. The reaction was stopped by addition of 100 μl 1M HCl after 1, 5 or 10 min. Cells were removed by centrifugation and the supernatant analysed by chiral HPLC for the presence of mandeloamide and phenylpropionamide, respectively. rac-Mandeloamide was analysed on a HPLC comprising a Surveyor 4 channel Pump, AutoSampler and UVNIS detector at 210 nm from Thermo Finnigan on a Nucleodex β-OH column (Macherey & Nagel) using 50% methanol/water:water (40:60) as mobile phase at a flow rate of 0.7 ml/min. The apparent enantiomeric ratio (Eapp) of the conversion of mandelonitrile was calculated according to Straathof and Jongejan for […] (see example 9). In case of 2-phenylpropionamide, the samples were lyophilized and resuspended in n-hexane: 2-propanol (80:20). Prior to injection, the samples were additionally dried with sodium sulfate and were centrifugated at 16,000 g for 5 min. The supernatants were analyzed using a Chiracel OD column (Daicel) on a Spectra System (AS3000, P2000, UV2000 at 210 nm) from Thermo Separation Products with n-hexane: 2-propanol (80:20) as mobile phase at a flow rate of 0.5 ml/min. The enantiomeric ratio (E) of the conversion of PPN was calculated according to Chen et al. […]

The nature of data set [4]: Enantioselectivity of NHases towards rac-2-phenylpropionitrile (washed cells, chiral HPLC). The note with it: for E-value: kinetic resolution of rac-2-phenylpropionitrile; for enantiopreference: rac-2-phenylpropionitrile. The method, then: For the determination of enantioselectivity towards rac-mandelonitrile and 2-phenylpropionitrile 40-50 mg of washed cells were resuspended in 1 ml of 50 mM Tris/HCl pH 7.5. 100 μl of cell suspension were mixed with 800 μl 50 mM Tris/HCl pH 7.5 and incubated at 30° C. in a thermomixer at 1000 rpm. The biotransformation was started by addition of 100 μl of 10 mM rac-mandelonitrile or rac-2-phenylpropionitrile in 50 mM Tris/HCl pH 7.5. The reaction was stopped by addition of 100 μl 1M HCl after 1, 5 or 10 min. Cells were removed by centrifugation and the supernatant analysed by chiral HPLC for the presence of mandeloamide and phenylpropionamide, respectively. rac-Mandeloamide was analysed on a HPLC comprising a Surveyor 4 channel Pump, AutoSampler and UVNIS detector at 210 nm from Thermo Finnigan on a Nucleodex β-OH column (Macherey & Nagel) using 50% methanol/water:water (40:60) as mobile phase at a flow rate of 0.7 ml/min. The apparent enantiomeric ratio (Eapp) of the conversion of mandelonitrile was calculated according to Straathof and Jongejan for asymmetric catalysis (see example 9). In case of 2-phenylpropionamide, the samples were lyophilized and resuspended in n-hexane: 2-propanol (80:20). Prior to injection, the samples were additionally dried with sodium sulfate and were centrifugated at 16,000 g for 5 min. The supernatants were analyzed using a Chiracel OD column (Daicel) on a Spectra System (AS3000, P2000, UV2000 at 210 nm) from Thermo Separation Products with n-hexane: 2-propanol (80:20) as mobile phase at a flow rate of 0.5 ml/min. The enantiomeric ratio (E) of the conversion of PPN was calculated according to Chen et al.

A short description of data set [5]: Activity of enzyme samples after heterologous expression of NHases in E. coli towards PPN. The note with it: 1 mM PPN; stopped after 1 min; host E. coli BL21 (DE3) (a) or E. coli Rosetta (DE3) (b). The method, then:
The amplified α-subunits were ligated to pET22b whereas the β-subunits were ligated to pET26b by use of the unique NdeI and XhoI restriction enzyme recognition sites. E. coli BL21 (DE3) or E. coli Rosetta (DE3) was cotransformed with the vectors carrying the genes for the corresponding α- and β-subunits of the NHases. Freshly transformed cells were grown over night at 37° C. in 5 ml LB-medium containing 100 μg/ml ampicillin, 25 μg/ml kanamycin and 2% (w/v) glucose. In case of E. coli Rosetta (DE3) 12.5 μg/ml chloramphenicol was additionally used. 1 ml of this culture was used to inoculate 100 ml of LB-medium containing 100 μg/ml ampicillin, 25 μg/ml kanamycin and 1% (w/v) glucose. Cells were incubated at 20° C. or 30° C. on a gyratory shaker at 100 rpm. At an optical density O.D.595=1 cells were induced by addition of 100 μg/ml IPTG. Simultaneously, CoCl2*6H2O was added in a concentration of 250 μM. When the P16K activator protein from the strain Brevibacterium linens was coexpressed with the corresponding NHase E. coli Rosetta (DE3) pET22—32B1α pET26—32B.1β pBBR5—32B_P16K was grown in LB-medium containing 100 μg/ml ampicillin, 25 μg/ml kanamycin, 12.5 μg/ml chloramphenicol and 10 μg/ml gentamycin and 1% (w/v) glucose. Samples were taken 24 h after induction.
as §1

As to `CC(C#N)c1ccccc1` (stereo not drawn) [2-phenyl-propionitrile], the “rel. activity 77.1” value in data set [1] worked out at 100%. Moreover, the “rel. activity 38.1.2” value in data set [2] amounted to 100%.

Take methacrylonitrile: the “rel. activity 77.1” value in data set [1] amounted to 109%. Moreover, in data set [2], the “rel. activity 38.1.2” value came out at 138%.

`N#CCc1ccccc1` [phenyl-acetonitrile]: the “rel. activity 77.1” value in data set [1] stood at 1%. Moreover, in data set [2], the “rel. activity 38.1.2” value is 1%.

Consider `CCC(C#N)c1ccccc1` (stereo not drawn) [2-phenyl-butyronitrile], for which the “rel. activity 77.1” value in data set [1] came out at 1%. For the same molecule, in data set [2], the “rel. activity 38.1.2” value is 18%.

Turning to `N#Cc1ccccc1` [benzonitrile], in data set [1], the “rel. activity 77.1” value is recorded as 18%. In addition, the “rel. activity 38.1.2” value in data set [2] worked out at 25%.

On to `N#CC(O)c1ccccc1` (stereo not drawn) [mandelonitrile], for which the “rel. activity 77.1” value in data set [1] stood at 5%. Also, the “rel. activity 38.1.2” value in data set [2] turned out to be 9%.

Regarding `N#Cc1cccnc1` [3-cyanopyridine], in data set [1], the “rel. activity 77.1” value worked out at 21%.

Turning to butyronitrile, the “rel. activity 77.1” value in data set [1] is given as 242%. Further, the “rel. activity 38.1.2” value in data set [2] is 281%.

B1: NHase Seq ID No. 10 and 12: nitrile hydratase of Pantoea sp. strain 17.3.1, α-subunit SEQ ID NO 10, β-subunit SEQ ID NO 12 (protein)
alpha: MSNHDVLPSESALKVRAIQSLLTEKGLLDPQTSDAIVDYFENKIGPRNGASVVARAWLDAEFKKKLLEDGTTAISEMGFSGAEGAVIHVLENTDAVHNIVVCTLCSCYPWPVLGLPPIWFKSAQYRSRVVIDPRGVLKEFGTELPPEKEIRVWDSNAEIRYFVLPQRPAGTENLSEEQLAARVTRDSMIGTGIL
beta: MNGIHDCGGMQNLGAIPLEENEPVFHAEWEKAILVMTINGFLSGSILVDNFRHQIEKMPASEYLLTSYYEHWVFAMEHLLINNNTITREALESRMAELAERVEMSAIAKETFLELIKTTPNYHRESDAIARFAPGDTIRTCELNTPGHTRLPRYARDKTGVIIAMYGVCVFPDSLTRDGSEDPQHVYLVQFSSADLWGAGSEPFTVSLSLFESYIAEKVE
modifications: Pantoea sp., strain 17.3.1
B1: in data set [3], the enantiopreference entry is on record as “(S)”, the Eapp-value is 4, the Eapp-value heterologously expressed amounted to 4 and the Eapp-value homologously expressed was 5. In data set [4], the E-value worked out at 2 and the enantiopreference entry is “(S)”. In data set [5], the spec. activity came out at 0.4 μkat/g cdw and the vol. activity is given as 0.6 μkat/L cultur.

B2: NHase Seq ID No. 14 and 16: nitrile hydratase of Brevibacterium linens strain 32B.1, α-subunit SEQ ID NO 14, β-subunit SEQ ID NO 16 (protein)
alpha: MSDKIRSQEEIAARVKALESMLIEKGIMTTQAIDRLVEIYENEVGPQLGAKVVAKAWSDPGFKSRLLTDATGACGELGIGGLQGEDMVVVEDTDTVHNVIVCTLCSCYPWPVLGLPPNWYKDPQYRAAICREPRKVLSESFGYTVSNDVEIRVWDSSSEMRYWVLPRRPDGTDGWTEDQLADLVSRDSMIGVGPTAKAQS
beta: MNGVFDLAGTDGLGPVVVPDDEPIFRAEWEKAAFGMFSMCFRGGFFGVDQFRYGMEQIDPAVYLKSPYYEHWIHTVEYHGERTGQLDLDELDRRTEYYLANPDAPMPEHADDPELLAFINAVVPAGAPAKRESDKIARFQVGDTVKVLRDSPRGHTRRARYIRGATGEIVLAHGTFIYPDTAGNNLGECPEHVYTVRFTAEELWGAETAEPNQSVYFDVWDPYIELVTPRGAQSA
modifications: Brevibacterium linens, strain 32B.1
Take B2: in data set [3], the enantiopreference entry is “(S)”, the Eapp-value stood at 4, the Eapp-value heterologously expressed is recorded as 4 and the Eapp-value homologously expressed was found to be 4. In data set [4], the E-value is recorded as 8 and the enantiopreference entry is recorded as “(S)”. For the same molecule, in data set [5], the spec. activity is recorded as 16.9 μkat/g cdw and the vol. activity turned out to be 25.3 μkat/L cultur.

B3: NHase Seq ID No. 6 and 8: nitrile hydratase of Raoultella terrigena strain 37.1, α-subunit SEQ ID NO 6, β-subunit SEQ ID NO 8 (protein)
alpha: MSHKHDHDHTEPPIDIELRVRALESLLQEKGLIDPAALDELIDTYEHKVGPRNGAQVVARAWSDPEYKRRLMENATAAISELGFSGIQGEDMLVVENTPDVHNVTVCTLCSCYPWPVLGLPPVWYKSAPYRSRIVIDPRGVLAEFGLHIPESKEIRVWDSSAELRYLVLPERPAGTDGWSEAQLSELISRDSMIGTGVVTAP
beta: MNGIHDLGGMHGFGPIPTEENEPYFHHEWERRVFPMFASLFVGGHFNVDEFRHSIECMPPADYLQSSYYEHWLHAFETLLLAKGVITVDELWGGAKPTLCKPGTPVLTQDMVSMVVSTGGSARVSHDVAPRFRVGDRVRTKNFNPTTHTRLPRYARDKVGRIEIAHGVFITPDTAAHGLGEHPQHVYSVSFTAQELWGEPRPDNVFIDLWDDYLEEA
modifications: Raoultella terrigena, strain 37.1
Regarding B3, in data set [3], the enantiopreference result is listed as “(S)”, the Eapp-value is 18, the Eapp-value heterologously expressed worked out at 18 and the Eapp-value homologously expressed came to 17. In data set [4], the E-value worked out at 47 and the enantiopreference entry is recorded as “(S)”. In data set [5], this molecule gave a spec. activity of 2.8 μkat/g cdw and a vol. activity of 5.5 μkat/L cultur.
